{"source": "the supplement of paper PMC5998384", "key": {"[1]": {"tested_on": "HeLa Kyoto", "test": "solubility in G1/S (NP-40 vs SDS abundance) (log2 ratio); higher = more soluble", "conditions": "cell cycle stage: G1/S"}, "[2]": {"tested_on": "HeLa Kyoto", "test": "solubility change mitosis vs G1/S (difference of NP-40 vs SDS log2 ratios) (log2 ratio difference); higher = more soluble in mitosis"}}}
{"substance": "MAAGCCGVKKQKLSSSPPSGSGGGGGASSSSHCSGESQCRAGELGLGGAGTRLNGLGGLTGGGSGSGCTLSPPQGCGGGGGGIALSPPPSCGVGTLLSTPAAATSSSPSSSSAASSSSPGSRKMVVSAEMCCFCFDVLYCHLYGYQQPRTPRFTNEPYPLFVTWKIGRDKRLRGCIGTFSAMNLHSGLREYTLTSALKDSRFPPMTRDELPRLFCSVSLLTNFEDVCDYLDWEVGVHGIRIEFINEKGSKRTATYLPEVAKEQGWDHIQTIDSLLRKGGYKAPITNEFRKTIKLTRYRSEKMTLSYAEYLAHRQHHHFQNGIGHPLPPYNHYS [AMMECR1]", "values": [{"measurement": "solubility in G1/S (log2)", "setting": "[1]", "result": 0.255}, {"measurement": "solubility change mitosis (log2)", "setting": "[2]", "result": -0.37}]}
{"substance": "ELL2", "values": [{"measurement": "solubility in G1/S (log2)", "setting": "[1]", "result": 0.0976}, {"measurement": "solubility change mitosis (log2)", "setting": "[2]", "result": 0.0626}]}
{"substance": "ATAD5", "values": [{"measurement": "solubility in G1/S (log2)", "setting": "[1]", "result": -1.01}, {"measurement": "solubility change mitosis (log2)", "setting": "[2]", "result": 0.557}]}
{"substance": "MPLLVEGRRVRLPQSAGDLVRAHPPLEERARLLRGQSVQQVGPQGLLYVQQRELAVTSPKDGSISILGSDDATTCHIVVLRHTGNGATCLTHCDGTDTKAEVPLIMNSIKSFSDHAQCGRLEVHLVGGFSDDRQLSQKLTHQLLSEFDRQEDDIHLVTLCVTELNDREENENHFPVIYGIAVNIKTAEIYRASFQDRGPEEQLRAARTLAGGPMISIYDAETEQLRIGPYSWTPFPHVDFWLHQDDKQILENLSTSPLAEPPHFVEHIRSTLMFLKKHPSPAHTLFSGNKALLYKKNEDGLWEKISSPGS [NTAN1]", "values": [{"measurement": "solubility in G1/S (log2)", "setting": "[1]", "result": -0.142}, {"measurement": "solubility change mitosis (log2)", "setting": "[2]", "result": 0.176}]}
{"substance": "MSYMLPHLHNGWQVDQAILSEEDRVVVIRFGHDWDPTCMKMDEVLYSIAEKVKNFAVIYLVDITEVPDFNKMYELYDPCTVMFFFRNKHIMIDLGTGNNNKINWAMEDKQEMVDIIETVYRGARKGRGLVVSPKDYSTKYRY [TXNL4A]", "values": [{"measurement": "solubility in G1/S (log2)", "setting": "[1]", "result": -0.625}, {"measurement": "solubility change mitosis (log2)", "setting": "[2]", "result": 0.224}]}
{"substance": "KDM5A", "values": [{"measurement": "solubility in G1/S (log2)", "setting": "[1]", "result": -0.206}, {"measurement": "solubility change mitosis (log2)", "setting": "[2]", "result": 0.00727}]}
{"substance": "MGNIFGNLLKSLIGKKEMRILMVGLDAAGKTTILYKLKLGEIVTTIPTIGFNVETVEYKNISFTVWDVGGQDKIRPLWRHYFQNTQGLIFVVDSNDRERVNEAREELMRMLAEDELRDAVLLVFANKQDLPNAMNAAEITDKLGLHSLRHRNWYIQATCATSGDGLYEGLDWLANQLKNKK [ARF3]", "values": [{"measurement": "solubility in G1/S (log2)", "setting": "[1]", "result": -0.169}, {"measurement": "solubility change mitosis (log2)", "setting": "[2]", "result": -0.299}]}
{"substance": "MERKRWECPALPQGWEREEVPRRSGLSAGHRDVFYYSPSGKKFRSKPQLARYLGGSMDLSTFDFRTGKMLMSKMNKSRQRVRYDSSNQVKGKPDLNTALPVRQTASIFKQPVTKITNHPSNKVKSDPQKAVDQPRQLFWEKKLSGLNAFDIAEELVKTMDLPKGLQGVGPGCTDETLLSAIASALHTSTMPITGQLSAAVEKNPGVWLNTTQPLCKAFMVTDEDIRKQEELVQQVRKRLEEALMADMLAHVEELARDGEAPLDKACAEDDDEEDEEEEEEEPDPDPEMEHV [MBD3]", "values": [{"measurement": "solubility in G1/S (log2)", "setting": "[1]", "result": 0.334}, {"measurement": "solubility change mitosis (log2)", "setting": "[2]", "result": 0.629}]}
{"substance": "MSLALRSELVVDKTKRKKRRELSEEQKQEIKDAFELFDTDKDEAIDYHELKVAMRALGFDVKKADVLKILKDYDREATGKITFEDFNEVVTDWILERDPHEEILKAFKLFDDDDSGKISLRNLRRVARELGENMSDEELRAMIEEFDKDGDGEINQEEFIAIMTGDI [CETN3]", "values": [{"measurement": "solubility in G1/S (log2)", "setting": "[1]", "result": 0.133}, {"measurement": "solubility change mitosis (log2)", "setting": "[2]", "result": 0.0873}]}
{"substance": "MPLPGGLWWLLCCRRGFTLLHRDYGDGELSGDGDEDEDEETFELRTPSPAGGGRGPLEVTLTQPVRSGPVSNRLQSWEETWSLIPEKGLPEDDPDIVVKGWLYREPRGGGARPWLPPRRAWFVLTRDSLDQFSSSGKGARRLGSLVLTSLCSVTGPERRRKETGLWSVTVSGRKHSVRLCSPRQAEAERWGVALREVIASKAPLETPTQLLLRDIQESCGDPEAVALIYLRNPILRHTSGALYAPLLPLPYGVSAPGPGYAPLREEAVRLFLALQALEGARRPGPLMQGVLQTCRDLPALRDELFLQLAKQTSGPAGPPGLPATQDPAALRYWQLLTCMSCTFRPGGAVRGHLLGHLERTEQALPDSELAEYARFIRKALGRTRGRELVPSLAEISALSQRQELLCTVHCPGAGACAVAIDSHTTAGEVARELVGRLGLARSRNAFALYEQRGAQERALAGGTLVADVLTRFENLAAEEAGLEDSPDSGWRLCLRLHGPLHPEGLSPDGHELPFLFEQAHALLLRGRPPPPDDTLRALAALRLQSLQRDFSPRVPLPRLDRLLPPPAPPREDPPRPTPRPPPSAALLAGALWSPGLAKRRAERARRGGAGRTAGSIAREGGGGAGTAAAVLGGWKRLRGMGRAEAMAAYLALAAQCPGFGAARYDVLELSTEPGRGAPQKLCLGLGAKAMSLSRPGETEPIHSVSYGHVAACQLMGPHTLALRVGESQLLLQSPQVEEIMQLVNAYLANPSPERPCSSSSPPCQDLPDTSPPSQRPGLDEPQGQSGCLGQLQD [PLEKHH3]", "values": [{"measurement": "solubility in G1/S (log2)", "setting": "[1]", "result": 0.00769}, {"measurement": "solubility change mitosis (log2)", "setting": "[2]", "result": -0.16}]}
{"substance": "MAAEEVLQTVDHYKTEIERLTKELTETTHEKIQAAEYGLVVLEEKLTLKQQYDELEAEYDSLKQELEQLKEAFGQSFSIHRKVAEDGETREETLLQESASKEAYYLGKILEMQNELKQSRAVVTNVQAENERLTAVVQDLKENNEMVELQRIRMKDEIREYKFREARLLQDYTELEEENITLQKLVSTLKQNQVEYEGLKHEIKRFEEETVLLNSQLEDAIRLKEIAEHQLEEALETLKNEREQKNNLRKELSQYISLNDNHISISVDGLKFAEDGSEPNNDDKMNGHIHGPLVKLNGDYRTPTLRKGESLNPVSDLFSELNISEIQKLKQQLMQVEREKAILLANLQESQTQLEHTKGALTEQHERVHRLTEHVNAMRGLQSSKELKAELDGEKGRDSGEEAHDYEVDINGLEILECKYRVAVTEVIDLKAEIKALKEKYNKSVENYTDEKAKYESKIQMYDEQVTSLEKTTKESGEKMAHMEKELQKMTSIANENHSTLNTAQDELVTFSEELAQLYHHVCLCNNETPNRVMLDYYRQSRVTRSGSLKGPDDPRGLLSPRLARRGVSSPVETRTSSEPVAKESTEASKEPSPTKTPTISPVITAPPSSPVLDTSDIRKEPMNIYNLNAIIRDQIKHLQKAVDRSLQLSRQRAAARELAPMIDKDKEALMEEILKLKSLLSTKREQIATLRAVLKANKQTAEVALANLKNKYENEKAMVTETMTKLRNELKALKEDAATFSSLRAMFATRCDEYVTQLDEMQRQLAAAEDEKKTLNTLLRMAIQQKLALTQRLEDLEFDHEQSRRSKGKLGKSKIGSPKVSGEASVTVPTIDTYLLHSQGPQTPNIRVSSGTQRKRQFSPSLCDQSRPRTSGASYLQNLLRVPPDPTSTESFLLKGPPSMSEFIQGHRLSKEKRLTVAPPDCQQPAASVPPQCSQLAGRQDCPTVSPDTALPEEQPHSSSQCAPLHCLSKPPHP [BICD1]", "values": [{"measurement": "solubility in G1/S (log2)", "setting": "[1]", "result": 0.652}, {"measurement": "solubility change mitosis (log2)", "setting": "[2]", "result": -0.259}]}
{"substance": "MEVEAAEARSPAPGYKRSGRRYKCLSCTKTFPNAPRAARHAATHGPADCSEEVAEVKPKPETEAKAEEASGEKVSGSAAKPRPYACPLCPKAYKTAPELRSHGRSHTGEKPFPCPECGRRFMQPVCLRVHLASHAGELPFRCAHCPKAYGALSKLKIHQRGHTGERPYACADCGKSFADPSVFRKHRRTHAGLRPYSCERCGKAYAELKDLRNHERSHTGERPFLCSECGKSFSRSSSLTCHQRIHAAQKPYRCPACGKGFTQLSSYQSHERTHSGEKPFLCPRCGRMFSDPSSFRRHQRAHEGVKPYHCEKCGKDFRQPADLAMHRRVHTGDRPFKCLQCDKTFVASWDLKRHALVHSGQRPFRCEECGRAFAERASLTKHSRVHSGERPFHCNACGKSFVVSSSLRKHERTHRSSEAAGVPPAQELVVGLALPVGVAGESSAAPAAGAGLGDPPAGLLGLPPESGGVMATQWQVVGMTVEHVECQDAGVREAPGPLEGAGEAGGEEADEKPPQFVCRECKETFSTMTLLRRHERSHPELRPFPCTQCGKSFSDRAGLRKHSRTHSSVRPYTCPHCPKAFLSASDLRKHERTHPVPMGTPTPLEPLVALLGMPEEGPA [ZNF668]", "values": [{"measurement": "solubility in G1/S (log2)", "setting": "[1]", "result": -0.985}, {"measurement": "solubility change mitosis (log2)", "setting": "[2]", "result": 0.453}]}
